The target of assay [1] is T1, c-Myc conjugated and biotinylated human CD28 stalk region dimeric peptide (wild-type) (human, C-terminal biotin; dimer by a disulfide linkage at Cysteine 141 (CD28 numbering)).
T1 construct: N-terminal tag, five glycines, then His134-Pro152 of human CD28; also called substrate peptide; wild-type CD28 stalk region dimeric peptide
T1 peptide: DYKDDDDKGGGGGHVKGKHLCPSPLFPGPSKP
The assay is described as follows: direct ELISA, wild-type biotinylated dimeric stalk peptide on neutravidin plates. A general note: ELISA stands for enzyme-linked immunosorbent assay.

In assay [2] the target is T2, membranal human CD28 (human, UniProt P10747 19-220). Kind of assay: cell-based or functional assay.
Assay [3] has as its target T2, membranal human CD28. Kind of assay: flow cytometry on HEK293 cells over expressing human CD28; percent reduction of median CD86-Fc (2 µg/mL) signal; competitor CD86-Fc.
Assay [4] addresses T3, L145K CD28 stalk region dimeric peptide (human, C-terminal biotin; dimeric).
T3 construct: also called CD28 stalk region peptide with mutation at the cleavage site
T3 peptide: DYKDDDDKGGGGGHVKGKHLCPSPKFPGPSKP
The assay is described as follows: direct ELISA on biotinylated dimeric peptide on neutravidin plates.

For assay [5], the target named is T4, BSA conjugated CD28 stalk region dimeric peptide (human, also: dimer, conjugated to BSA via C-terminal Lys).
T4 construct: also called stalk region peptide
T4 peptide: GKHLCPSPLFPGPSKPK
The assay is described as follows: ELISA, BSA conjugated dimeric peptide on plate, serial dilution of M9.

Where no end group is shown, it is not given here.

B1: VHH clone 2A1 (VHH)
VHH: EVQLVESGGGLVQAGESLRLSCAASGSIASINAMGWYRQAPGSQRELVAAISGGGDTYYADSVKGRFTISRDNAKTTVYLQMNSLRPEDTAVYYCVVDLYGSDYWDWGQGTQVTVSSAAAHHHHHH
notes: VHH with AAA linker and C-terminal His6, made in CHO cells; also called VHH #2A1; 2A1-6H
Consider B1, for which the results for the binding result in assay [1] and in assay [4] were “binds” and “no binding (tested: 0.2-5 µg/mL)”, respectively. Besides, the “Inhibition (%) of CD28 shedding” value in assay [2] was determined as 58.9%. Also, the “Blocking CD86 binding (%)” value in assay [3] was 8.2%.

B2: VHH clone 4A4 (VHH)
VHH: EVQLVESGGGLVQAGGSLRLSCAASGSLFSINAMAWYRQAPGKQRELVAAITSSGSTNYANSVKGRFTVSRDNAKNTMYLQMNSLKPEDTAVYYCVVDEYGSDYWIWGQGTQVTVSS
notes: VHH with AAA linker and C-terminal His6, made in CHO cells
Consider B2, for which the binding result in assay [1] was “binds”; in assay [4], “no binding (tested: 0.2-5 µg/mL)”.

B3: VHH clone 4A1 (VHH)
VHH: QVQLVESGGGLVQAGGSLRLSCAASGSIFSINAMGWYRQAPGKQRERVAAITSGGSTNYADSVKGRFTISRDNAKNTVYLQMNNLEPRDAGVYYCVVDLYGEDYWIWGQGTQVTVSS
notes: as for B2
Regarding B3, the binding result in assay [1] was “binds”; in assay [4], “no binding (tested: 0.2-5 µg/mL)”.

B4: antibody M9 (antibody, V domains shown)
VH: DVKLVESGGGLVKLGGSLKLSCVASGFTFSSYYMSWVRQTPEKRLEWVATISDGGDNTYYAGTVTGRFTISRDFAKNTLYLQMNSLTSEDTAVYYCARIHWPYYFDSWGQGTTLTVSS
VL: QFVLSQSPAILSASPGEMLTMTCRASSSVSYMNWYQQKPGSSPKPWIYATSDLASGVPARFSGSGSGTSYSLTISRVEAEDAATYYCQQWSSHPPTFGGGTKLEIR
notes: Full-size mouse antibody from CD1 mice immunised with the dimeric stalk peptide, detected with anti mouse IgG; also called clone M9; anti-cleavage antibody M9
In the case of B4, the binding result in assay [5] is “binds”.

The values are drawn from patent US20230144459A1 (BIOND BIOLOGICS, published 2023).
